Test system: HSV-1 infected rats
Assay: Intracranial pressure (ICP) and neurological symptoms in HSV-1 infected rats, fibre optic pressure sensor
Type: in vivo, rat
Settings: HSV-1 infected rat treated twice daily, day 5
Experimental: Adult rats were infected by having a solution of the Herpes Simplex virus type 1 (HSV-1; strain 2762, batch 041028; 1.7×10^7 PFU/mL; 25 pL) instilled in their right nostril. One group of animals (n=6) received 10 min after the infection 25 pL (10 pg) of AF-16 in their right nostril, and had thereafter the same dose of AF-16 instilled twice daily, every morning at 8 AM and every night at 6 PM, until the experiment was terminated on day 6. Additional HSV-1 infected rats (n=6) received in the nose at the same time intervals 25 pL of the vehicle, phosphate buffered saline (PBS). On day 6, the animals were anaesthetized, a surgical incision made through the skin on the head, and the skull bone freed from periostium and connective tissue. A hole with a diameter of about 1 mm was drilled through the right parietal bone and a miniature pressure sensor inserted 3-5 mm into the brain or into the lateral ventricle. A fibre optic pressure measure system (Samba System 3200 & Samba Preclin 420 sensor; Samba Sensors AB, V Frolunda, Sweden) with a very small diameter, ve. 0.4 mm, was used. […] HSV-1 infected rats treated with just the vehicle were measured to have as high pressures as up to 30-45 mm Hg (FIG. 2a), considerably affect the animals as reflected by symptoms of neurological dysfunction of increasing severity. In contrast, HSV-1 infected rats treated from the time of infection with AF-16 twice daily had almost normal ICP, 8-14 mm Hg (FIG. 2 b).
Additional HSV-1 infected animals with distinctly overt symptoms were as well treated with 10 or 25 pg AF-16 intranasally, starting on day 5, 6 or 7, i.e. after having had the vehicle during the previous days. […] Thus, non of the acutely AF-16 treated rats had any persistent signs of deleterious ICP and thus no CS developed. […] That is seen in the mentioned figure (FIG. 5 a) as there is no red staining of the right half on the figure. However, treatment with 10 or 25 pg AF-16 intranasally turned the picture in HSV-1 infected rats as in the normal, non-infected ones. […] Thereby the outflow of CSF was restored and the ICP turned normal.

B1: AF: antisecretory factor; antisecretory proteins and peptides; in FIG. 2b probably AF-16 (protein, UniProt P55036 1-377, looked up)
26S proteasome non-ATPase …: MVLESTMVCVDNSEYMRNGDFLPTRLQAQQDAVNIVCHSKTRSNPENNVGLITLANDCEVLTTLTPDTGRILSKLHTVQPKGKITFCTGIRVAHLALKHRQGKNHKMRIIAFVGSPVEDNEKDLVKLAKRLKKEKVNVDIINFGEEEVNTEKLTAFVNTLNGKDGTGSHLVTVPPGPSLADALISSPILAGEGGAMLGLGASDFEFGVDPSADPELALALRVSMEEQRQRQEEEARRAAAASAAEAGIATTGTEDSDDALLKMTISQQEFGRTGLPDLSSMTEEEQIAYAMQMSLQGAEFGQAESADIDASSAMDTSEPAKEEDDYDVMQDPEFLQSVLENLPGVDPNNEAIRNAMGSLASQATKDGKKDKKEEDKK
In the case of B1, the “ICP (FIG. 2b)” value is reported as “almost turned the ICP back to normal levels”.

Source: patent publication US8389468B2, “Approach to the treatment of compartment syndrome” (Lantmannen AS-Faktor AB, priority 2006, dated 2013)
